Measurements as given in the supplement of paper PMC7125110.
± gives the standard error. This sample holds only a part of the variants without activity.

B1: glmS ribozyme (parent)
chain: AUAAAAGCGCCAGAACUACAGAAAUGUAGUUGACGAGGAGGAGGUUUAUCGAAUUUUCGGCGGAUGCCUCCAAA

Legend:
Conditions in all cases: with glucosamine-6-phosphate
glucosamine-6-phosphate [1] = variants of: B1; experiment: self-cleavage kobs at 40 uM GlcN6P; higher = faster cleavage; RNA array
Summary of the method: (§1)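 The measurements used barcoded ribozyme variants on sequenced MiSeq chips, transcribed in situ by E. coli RNA polymerase and tracked at 37 °C with a hybridised Cy3 probe. Glucosamine-6-phosphate, 40 μM to 10 mM in HEPES/KCl/Mg(OAc)2 buffer, was flowed in while tiles were imaged over ~14 h. Baseline-normalised signals, also normalised to non-cleaving reference variants, gave per-tile medians that were fit to one- or two-exponential decays for kobs. kcat and KM resulted from weighted Michaelis–Menten fits across concentrations.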

glucosamine-6-phosphate [2] = variants of: B1; experiment: self-cleavage kobs at 160 uM GlcN6P; higher = faster cleavage; RNA array
Summary of the method: as §1

glucosamine-6-phosphate [3] = variants of: B1; experiment: self-cleavage kobs at 640 uM GlcN6P; higher = faster cleavage; RNA array
Summary of the method: as §1

glucosamine-6-phosphate [4] = variants of: B1; experiment: self-cleavage kobs at 10000 uM GlcN6P; higher = faster cleavage; RNA array
Summary of the method: as §1

glucosamine-6-phosphate [5] = variants of: B1; experiment: self-cleavage kobs at 2500 uM GlcN6P; higher = faster cleavage; RNA array
Summary of the method: as §1

| Variant | self-cleavage kobs at 40 uM GlcN6P (glucosamine-6-phosphate [1]) | self-cleavage kobs at 160 uM GlcN6P (glucosamine-6-phosphate [2]) | self-cleavage kobs at 640 uM GlcN6P (glucosamine-6-phosphate [3]) | self-cleavage kobs at 10000 uM GlcN6P (glucosamine-6-phosphate [4]) | self-cleavage kobs at 2500 uM GlcN6P (glucosamine-6-phosphate [5]) |
| --- | --- | --- | --- | --- | --- |
| G41U G60U | < 1e-05 s⁻¹ | < 1e-05 s⁻¹ | < 1e-05 s⁻¹ | < 1e-05 s⁻¹ | – |
| A28U | 0.000787 ± 0.00025 s⁻¹ | – | – | 0.0176 ± 0.0065 s⁻¹ | 0.0144 ± 0.0048 s⁻¹ |
| C10U U49C | < 1e-05 s⁻¹ | – | < 1e-05 s⁻¹ | < 1e-05 s⁻¹ | < 1e-05 s⁻¹ |
| G44C U65C | < 1e-05 s⁻¹ | < 1e-05 s⁻¹ | < 1e-05 s⁻¹ | < 1e-05 s⁻¹ | – |
| A42U G60A | < 1e-05 s⁻¹ | < 1e-05 s⁻¹ | – | < 1e-05 s⁻¹ | – |
| A15U C61G | < 1e-05 s⁻¹ | – | – | < 1e-05 s⁻¹ | – |
| G44C A48C | < 1e-05 s⁻¹ | < 1e-05 s⁻¹ | – | < 1e-05 s⁻¹ | < 1e-05 s⁻¹ |
| A33C G63U | < 1e-05 s⁻¹ | – | < 1e-05 s⁻¹ | < 1e-05 s⁻¹ | < 1e-05 s⁻¹ |
| A6U G59C C71G | < 1e-05 s⁻¹ | < 1e-05 s⁻¹ | < 1e-05 s⁻¹ | < 1e-05 s⁻¹ | < 1e-05 s⁻¹ |
| A6C A15C U54C C71U | < 1e-05 s⁻¹ | – | – | – | – |
| U31G C61A | < 1e-05 s⁻¹ | < 1e-05 s⁻¹ | – | < 1e-05 s⁻¹ | < 1e-05 s⁻¹ |
| A33U G60A | < 1e-05 s⁻¹ | < 1e-05 s⁻¹ | < 1e-05 s⁻¹ | – | – |
| C34G G41A | < 1e-05 s⁻¹ | < 1e-05 s⁻¹ | < 1e-05 s⁻¹ | < 1e-05 s⁻¹ | – |
| G43U C50U | < 1e-05 s⁻¹ | < 1e-05 s⁻¹ | < 1e-05 s⁻¹ | < 1e-05 s⁻¹ | < 1e-05 s⁻¹ |
| G41U C61G | < 1e-05 s⁻¹ | < 1e-05 s⁻¹ | < 1e-05 s⁻¹ | < 1e-05 s⁻¹ | < 1e-05 s⁻¹ |
| C8A C58U | < 1e-05 s⁻¹ | < 1e-05 s⁻¹ | < 1e-05 s⁻¹ | < 1e-05 s⁻¹ | < 1e-05 s⁻¹ |
| G7U G9A A14U C50G | 0.000146 ± 5.4e-05 s⁻¹ | 0.000138 ± 3.6e-05 s⁻¹ | 0.000267 ± 5.8e-05 s⁻¹ | 0.000226 ± 5.3e-05 s⁻¹ | 0.000647 ± 0.00016 s⁻¹ |
| G29U U56A | 4.68e-05 ± 1.4e-05 s⁻¹ | 9.32e-05 ± 2e-05 s⁻¹ | 0.000211 ± 7e-05 s⁻¹ | 0.00285 ± 0.00045 s⁻¹ | – |
| C8G A15C | < 1e-05 s⁻¹ | < 1e-05 s⁻¹ | < 1e-05 s⁻¹ | < 1e-05 s⁻¹ | < 1e-05 s⁻¹ |
| C11G U31G A53C | < 1e-05 s⁻¹ | – | – | – | – |

| Variant | self-cleavage kobs at 40 uM GlcN6P (glucosamine-6-phosphate [1]) | self-cleavage kobs at 160 uM GlcN6P (glucosamine-6-phosphate [2]) | self-cleavage kobs at 640 uM GlcN6P (glucosamine-6-phosphate [3]) | self-cleavage kobs at 10000 uM GlcN6P (glucosamine-6-phosphate [4]) | self-cleavage kobs at 2500 uM GlcN6P (glucosamine-6-phosphate [5]) |
| --- | --- | --- | --- | --- | --- |
| U30C A33C | < 1e-05 s⁻¹ | < 1e-05 s⁻¹ | < 1e-05 s⁻¹ | – | – |
| C16U U54A | 0.000888 ± 0.00012 s⁻¹ | 0.00185 ± 0.0004 s⁻¹ | 0.00323 ± 0.00079 s⁻¹ | 0.0405 ± 0.0081 s⁻¹ | 0.00607 ± 0.0014 s⁻¹ |
| A6U U55C C71A | < 1e-05 s⁻¹ | – | – | – | – |
| A6C G9A | < 1e-05 s⁻¹ | – | – | < 1e-05 s⁻¹ | – |
| G13U G59U | < 1e-05 s⁻¹ | < 1e-05 s⁻¹ | < 1e-05 s⁻¹ | < 1e-05 s⁻¹ | – |
| G13U A36U | < 1e-05 s⁻¹ | < 1e-05 s⁻¹ | < 1e-05 s⁻¹ | < 1e-05 s⁻¹ | < 1e-05 s⁻¹ |
| G21U C67G | 9.41e-05 ± 2.8e-05 s⁻¹ | – | – | 0.00119 ± 0.00023 s⁻¹ | 0.000139 ± 4.1e-05 s⁻¹ |
| C10U G37A G44A U57C | < 1e-05 s⁻¹ | – | – | – | – |
| G9U A15U | < 1e-05 s⁻¹ | < 1e-05 s⁻¹ | < 1e-05 s⁻¹ | – | – |
| G44C G51A A53C | < 1e-05 s⁻¹ | – | – | < 1e-05 s⁻¹ | – |
| C8U G13C G51A | < 1e-05 s⁻¹ | – | – | < 1e-05 s⁻¹ | < 1e-05 s⁻¹ |
| G38A U45C | < 1e-05 s⁻¹ | < 1e-05 s⁻¹ | < 1e-05 s⁻¹ | < 1e-05 s⁻¹ | < 1e-05 s⁻¹ |
| C11A A48U | < 1e-05 s⁻¹ | < 1e-05 s⁻¹ | < 1e-05 s⁻¹ | – | < 1e-05 s⁻¹ |
| A12C C50U U54G | < 1e-05 s⁻¹ | – | – | – | – |
| C10A G41C A48C C58G | < 1e-05 s⁻¹ | – | – | – | – |
| G41U A48U C68A | < 1e-05 s⁻¹ | – | – | – | < 1e-05 s⁻¹ |
| C34U A39G | < 1e-05 s⁻¹ | < 1e-05 s⁻¹ | < 1e-05 s⁻¹ | < 1e-05 s⁻¹ | < 1e-05 s⁻¹ |
| A14G C71A | 0.000515 ± 6.3e-05 s⁻¹ | 0.000688 ± 0.00011 s⁻¹ | 0.00337 ± 0.00085 s⁻¹ | – | 0.0123 ± 0.0037 s⁻¹ |
| A52C G62U | < 1e-05 s⁻¹ | < 1e-05 s⁻¹ | – | < 1e-05 s⁻¹ | – |
| G40C C58G C67U | < 1e-05 s⁻¹ | – | – | – | – |
